Numbering of substitutions follows the chain as printed.
B1: Ab46 (antibody, human IgG1, kappa, V domains shown)
VH: EVQLVQSGAEVKKPGASVKVSCKASGYTFTDYNIHWVRQAPGQGLEWMGYIYPNNDGTGYNQKFKSRVTMTTDTSTSTAYMELRSLRSDDTAVYYCARGDGNYVGDMDYWGQGTTVTVSS
VL: DIQMTQSPSSLSASVGDRVTITCRASENIYSYLAWYQQKPGKAPKLLVYNAKTLAEGVPSRFSGSGSGTDFTLTISSLQPEDFATYYCQHHYATPFTFGQGTKLEIKR
notes: humanized from Ab8; G1; also called Ab3 HC.1 and Ab3 LC.1b
B2: Ab45 (antibody, human IgG1, kappa, V domains shown)
VH: B1 VH
VL: B1 VL with A43P
notes: humanized from Ab8; G1; also called Ab3 HC.1 and Ab3 LC.1a
B3: Ab38 (antibody, human IgG1, kappa)
heavy: not shown
light: DIVMTQTPLSLSVTPGQPASISCRSSQSLVHSNGNTYLHWYLQKPGQSPQLLIYKVSNRFSGVPDRFSGSGSGTDFTLKISRVEAEDVGVYYCSQSTHVPFTFGGGTKVEIKRTVAAPSVFIFPPSDEQLKSGTASVVCLLNNFYPREAKVQWKVDNALQSGNSQESVTEQDSKDSTYSLSSTLTLSKADYEKHKVYACEVTHQGLSSPVTKSFNRGEC
notes: humanized from Ab7; G1; also called Ab4 HC.1a and Ab4 LC.1
B4: Ab28 (antibody, human IgG1, kappa)
heavy: not shown
light: B3 light with I2V, S28R, F101W
notes: humanized from Ab5; G1; also called Ab2 HC.1 and Ab2 LC.1b
B5: Ab27 (antibody, human IgG1, kappa, V domains shown)
VH: EVQLVQSGAEVKKPGSSVKVSCKASGYTFTSFWMHWVRQAPGQGLEWMGVIDPSDTYTNYNQKFKGRVTITADESTSTAYMELSSLRSEDTAVYYCARGDYSNWFTYWGQGTLVTVSS
VL: DVVMTQTPLSLSVTPGQPASISCRSSQRLVHSNGNTYLHWYLQKPGQSPQLLIYKVSNRFSGVPDRFSGSGSGTDFTLKISRVEAEDVGVYFCSQSTHVPWTFGGGTKVEIKR
notes: humanized from Ab5; G1; also called Ab2 HC.1 and Ab2 LC.1a
B6: Ab29 (antibody, human IgG1, kappa)
heavy: not shown
light: B3 light with S28R, F101W
notes: humanized from Ab5; G1; also called Ab HC.1a and Ab2 LC.1
B7: Ab26 (antibody, human IgG1, kappa)
heavy: not shown
light: B3 light with S28R, F101W
notes: humanized from Ab5; G1; also called Ab HC.1 and Ab2 LC.1
B8: Ab31 (antibody, human IgG1, kappa)
heavy: not shown
light: B3 light with I2V, S28R, F101W
notes: humanized from Ab5; G1; also called Ab2 HC.1a and Ab2 LC.1b

Target: T1, mouse PRLR on Baf3-mPRLR cells (mouse, UniProt Q08501 20-608)
T1 sequence (looked up): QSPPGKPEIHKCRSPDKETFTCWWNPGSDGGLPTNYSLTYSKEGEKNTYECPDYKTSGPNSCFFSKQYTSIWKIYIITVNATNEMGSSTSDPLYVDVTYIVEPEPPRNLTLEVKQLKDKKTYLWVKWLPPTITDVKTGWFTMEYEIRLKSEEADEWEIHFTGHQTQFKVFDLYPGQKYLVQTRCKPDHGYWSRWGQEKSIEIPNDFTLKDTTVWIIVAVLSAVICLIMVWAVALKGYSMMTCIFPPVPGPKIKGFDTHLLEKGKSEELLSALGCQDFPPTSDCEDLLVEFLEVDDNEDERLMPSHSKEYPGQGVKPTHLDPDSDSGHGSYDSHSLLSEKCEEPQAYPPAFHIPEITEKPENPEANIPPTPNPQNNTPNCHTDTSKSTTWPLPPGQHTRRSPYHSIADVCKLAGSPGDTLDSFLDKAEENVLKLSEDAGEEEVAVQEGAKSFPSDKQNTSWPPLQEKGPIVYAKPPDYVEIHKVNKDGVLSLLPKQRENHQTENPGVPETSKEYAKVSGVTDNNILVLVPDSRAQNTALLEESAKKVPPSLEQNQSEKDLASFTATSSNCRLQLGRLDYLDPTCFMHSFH
Test: cell-based or functional assay

Row | Binder | Baf3-mPRLR proliferation IC50
1 | B1 | > 30 µg/mL
2 | B2 | > 30 µg/mL
3 | B3 | > 30 µg/mL

Target: T2, human PRLR on cells (human, UniProt P16471 25-622)
T2 sequence: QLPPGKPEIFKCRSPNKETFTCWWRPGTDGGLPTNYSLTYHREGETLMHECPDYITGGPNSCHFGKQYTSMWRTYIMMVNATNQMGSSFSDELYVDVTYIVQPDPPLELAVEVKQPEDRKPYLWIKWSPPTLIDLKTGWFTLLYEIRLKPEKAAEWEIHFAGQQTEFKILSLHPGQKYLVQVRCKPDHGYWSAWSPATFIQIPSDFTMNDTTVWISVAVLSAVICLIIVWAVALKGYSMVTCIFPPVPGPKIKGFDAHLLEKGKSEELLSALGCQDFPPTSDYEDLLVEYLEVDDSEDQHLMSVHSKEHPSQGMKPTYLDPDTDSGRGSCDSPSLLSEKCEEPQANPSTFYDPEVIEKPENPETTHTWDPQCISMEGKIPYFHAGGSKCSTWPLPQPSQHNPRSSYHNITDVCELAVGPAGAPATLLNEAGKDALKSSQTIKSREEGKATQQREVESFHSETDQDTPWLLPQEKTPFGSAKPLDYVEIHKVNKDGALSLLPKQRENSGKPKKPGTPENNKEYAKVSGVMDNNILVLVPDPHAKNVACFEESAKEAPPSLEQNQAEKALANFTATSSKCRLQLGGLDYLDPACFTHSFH
Test: cell-based or functional assay

Row | Binder | Baf3-hPRLR proliferation IC50
4 | B1 | 0.3 µg/mL
5 | B2 | 0.31 µg/mL
6 | B4 | 0.22 µg/mL
7 | B5 | 0.16 µg/mL
8 | B6 | 0.15 µg/mL
9 | B3 | 0.42 µg/mL
10 | B7 | 0.23 µg/mL
11 | B8 | 0.17 µg/mL

Target: cyno PRLR on Baf3-cyPRLR cells (cyno)
Test: cell-based or functional assay

Row | Binder | Baf3-cyPRLR proliferation IC50
12 | B1 | 1.72 µg/mL
13 | B2 | 2.24 µg/mL
14 | B4 | 0.31 µg/mL
15 | B5 | 0.22 µg/mL
16 | B6 | 0.23 µg/mL
17 | B3 | 0.25 µg/mL
18 | B7 | 0.25 µg/mL
19 | B8 | 0.39 µg/mL

Target: T3, human PRLR (Biacore antigen) (human, UniProt P16471 25-234, limits assumed)
T3 construct: The construct injected over captured antibody is not described (a soluble form is likely); also called huPRLR
T3 sequence: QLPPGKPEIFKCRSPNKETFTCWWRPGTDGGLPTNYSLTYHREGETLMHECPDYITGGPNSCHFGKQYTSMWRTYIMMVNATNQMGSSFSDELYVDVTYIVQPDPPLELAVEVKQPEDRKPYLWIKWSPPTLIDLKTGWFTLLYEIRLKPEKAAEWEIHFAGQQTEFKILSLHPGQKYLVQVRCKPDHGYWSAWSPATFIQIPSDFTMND
Test: SPR Biacore
In short: (§1)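 Association rate, dissociation rate and dissociation constant were measured by surface plasmon resonance on a Biacore instrument. PRLR antigen was tested at 600 nM, 66.67 nM and 7.41 nM, a 3-point, 9-fold dilution series. Constants came from a 1:1 binding model fit (local Rmax, mass-transport term included) in Biacore T200 Evaluation Software.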

Row | Binder | Kd | koff | kon
20 | B5 | 1.25 nM | 0.000443 s⁻¹ | 356000 M⁻¹ s⁻¹
21 | B6 | 1.79 nM | 0.00056 s⁻¹ | 313000 M⁻¹ s⁻¹
22 | B3 | 6.22 nM | 0.000879 s⁻¹ | 141000 M⁻¹ s⁻¹
23 | B8 | 1.67 nM | 0.000537 s⁻¹ | 322000 M⁻¹ s⁻¹

Target: T4, murine PRLR (Biacore antigen) (murine, UniProt Q08501 20-229, limits assumed)
T4 construct: also called muPRLR
T4 sequence (looked up): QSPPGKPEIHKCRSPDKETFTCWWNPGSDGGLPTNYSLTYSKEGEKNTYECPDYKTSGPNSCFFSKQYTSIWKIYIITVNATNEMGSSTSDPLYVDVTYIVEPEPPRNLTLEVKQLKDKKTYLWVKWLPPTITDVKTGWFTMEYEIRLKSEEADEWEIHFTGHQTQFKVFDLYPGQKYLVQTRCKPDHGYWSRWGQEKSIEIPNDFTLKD
Test: SPR Biacore
In short: as §1

Row | Binder | Kd | koff | kon
24 | B4 | 52 nM | 0.00606 s⁻¹ | 117000 M⁻¹ s⁻¹
25 | B5 | 38.3 nM | 0.00512 s⁻¹ | 134000 M⁻¹ s⁻¹
26 | B6 | 53 nM | 0.00634 s⁻¹ | 120000 M⁻¹ s⁻¹
27 | B3 | 994 nM | 0.0527 s⁻¹ | 53000 M⁻¹ s⁻¹
28 | B8 | 55.7 nM | 0.00682 s⁻¹ | 122000 M⁻¹ s⁻¹

Target: T5, cyno PRLR (Biacore antigen) (cyno, UniProt A0A2K5WXK1 25-234)
T5 construct: also called cyPRLR
T5 sequence: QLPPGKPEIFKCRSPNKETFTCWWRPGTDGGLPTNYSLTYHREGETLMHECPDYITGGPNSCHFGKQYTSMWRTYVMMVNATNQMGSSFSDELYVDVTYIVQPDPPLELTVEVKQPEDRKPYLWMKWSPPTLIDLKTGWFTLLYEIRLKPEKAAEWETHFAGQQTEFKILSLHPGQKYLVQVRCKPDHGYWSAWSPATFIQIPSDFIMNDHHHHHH
Test: SPR Biacore
In short: as §1

Row | Binder | Kd | koff | kon
29 | B4 | 1.97 nM | 0.000619 s⁻¹ | 315000 M⁻¹ s⁻¹
30 | B5 | 1.56 nM | 0.00052 s⁻¹ | 333000 M⁻¹ s⁻¹
31 | B6 | 2.24 nM | 0.000675 s⁻¹ | 301000 M⁻¹ s⁻¹
32 | B3 | 6.04 nM | 0.000756 s⁻¹ | 125000 M⁻¹ s⁻¹
33 | B8 | 2.08 nM | 0.000643 s⁻¹ | 310000 M⁻¹ s⁻¹

Target: T6, cyno PRLR ECD-his6 protein (cyno)
T6 chain: T5 sequence
Test: ELISA on ECD
Procedure: (§2) Plates were blocked for 1 hour with Superblock (Pierce) and washed (3×) with wash buffer (lx PBS (pH 7.4), 0.05% Tween 20). ECD proteins were bound to the appropriate antibody (1 hour) in binding buffer (wash buffer plus 10% Superblock), washed (3×, wash buffer), and then incubated with serial dilutions of antibodies (1 hour) in binding buffer. After washing (3×, wash buffer), secondary antibodies conjugated to HRP were bound (1 hour) in binding buffer, washed (3×, wash buffer), and incubated with TMB substrate (Pierce) to develop signal for 3-5 minutes, stopped with 2N H₂SO₄ and scanned at […]. Curves were fit with GraphPad 5 (Prizm) and EC50's were determined with curve fitting function of GraphPad 5.

Row | Binder | EC50
34 | B1 | 0.0814 nM
35 | B2 | 0.201 nM
36 | B4 | 0.0965 nM
37 | B5 | 0.102 nM
38 | B6 | 0.153 nM
39 | B3 | 0.264 nM
40 | B7 | 0.151 nM
41 | B8 | 0.256 nM

Target: T7, rat PRLR ECD-Fc fusion protein (rat, UniProt P05710 20-229)
T7 construct: extracellular domain; not shown: Fc region (captured by goat anti-human Fc)
T7 sequence (looked up): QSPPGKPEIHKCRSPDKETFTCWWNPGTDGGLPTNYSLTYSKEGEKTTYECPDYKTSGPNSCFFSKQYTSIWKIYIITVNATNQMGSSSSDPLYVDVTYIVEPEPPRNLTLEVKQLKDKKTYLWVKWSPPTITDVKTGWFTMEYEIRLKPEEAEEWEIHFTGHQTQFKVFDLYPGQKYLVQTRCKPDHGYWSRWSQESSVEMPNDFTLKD
Test: ELISA on ECD
Procedure: as §2

Row | Binder | EC50
42 | B4 | 0.416 nM
43 | B5 | 0.125 nM
44 | B6 | 0.689 nM
45 | B7 | 0.164 nM
46 | B8 | 0.718 nM

Target: T8, mouse PRLR ECD-Fc fusion protein (mouse, UniProt Q08501 20-229)
T8 construct: extracellular domain; not shown: Fc region (captured by goat anti-human Fc)
T8 sequence (looked up): T4 sequence (looked up)
Test: ELISA on ECD
Procedure: as §2

Row | Binder | EC50
47 | B1 | 0.568 nM
48 | B2 | 0.978 nM
49 | B4 | 0.292 nM
50 | B5 | 0.185 nM
51 | B6 | 0.238 nM
52 | B7 | 0.201 nM
53 | B8 | 0.333 nM

Target: T9, human PRLR ECD-Fc fusion protein (human, UniProt P16471 25-233)
T9 construct: not shown: Fc region (captured by goat anti-human Fc)
T9 sequence: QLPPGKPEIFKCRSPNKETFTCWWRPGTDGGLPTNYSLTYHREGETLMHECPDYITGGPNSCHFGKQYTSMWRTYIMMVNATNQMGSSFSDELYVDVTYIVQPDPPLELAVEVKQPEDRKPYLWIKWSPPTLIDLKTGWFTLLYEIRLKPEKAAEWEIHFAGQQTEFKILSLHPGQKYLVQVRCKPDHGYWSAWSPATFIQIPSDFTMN
Test: ELISA on ECD
Procedure: as §2

Row | Binder | EC50
54 | B1 | 0.0626 nM
55 | B2 | 0.0684 nM
56 | B5 | 0.17 nM
57 | B6 | 0.269 nM
58 | B3 | 0.346 nM
59 | B8 | 0.453 nM

From patent publication US20170022281A1 (AbbVie / Abbott, published 2017)
